This note sets out measurements from patent publication US20250250330A1.

Several values for one entry are separate records, joined by “and”; a condition that tells them apart may be missing. Equal values may be shown once.

Usually EC50 stands for the concentration needed to bring the measured effect to its halfway point.

For this experiment, the target named is Recombinant human VEGF165 (Peprotech, Cat #100-20) (human) (UniProt P15692). Briefly: ELISA; rhVEGF165 coated, anti-human IgG Fc-HRP detection.
Recombinant human VEGF165 (Peprotech, Cat #100-20) (human), sequence (P15692 other isoform, or with tags, fused parts or gaps limits assumed): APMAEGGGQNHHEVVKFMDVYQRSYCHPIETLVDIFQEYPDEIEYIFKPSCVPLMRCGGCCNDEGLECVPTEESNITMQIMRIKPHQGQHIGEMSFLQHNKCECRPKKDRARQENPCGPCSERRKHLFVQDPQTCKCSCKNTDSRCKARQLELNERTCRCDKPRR

Aflibercept (Fc fusion), sequence (chain): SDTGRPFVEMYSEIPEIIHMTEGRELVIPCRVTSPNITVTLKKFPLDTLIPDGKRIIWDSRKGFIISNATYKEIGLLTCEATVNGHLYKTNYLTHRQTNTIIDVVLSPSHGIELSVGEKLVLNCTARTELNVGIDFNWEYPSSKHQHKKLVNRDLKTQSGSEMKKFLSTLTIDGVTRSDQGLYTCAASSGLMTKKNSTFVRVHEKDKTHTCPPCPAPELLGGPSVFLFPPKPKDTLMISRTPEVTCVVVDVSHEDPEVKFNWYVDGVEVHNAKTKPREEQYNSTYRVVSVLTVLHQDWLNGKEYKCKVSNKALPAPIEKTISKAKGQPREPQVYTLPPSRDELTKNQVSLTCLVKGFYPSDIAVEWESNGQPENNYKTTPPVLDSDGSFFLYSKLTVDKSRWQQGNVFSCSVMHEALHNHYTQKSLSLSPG

Turning to Aflibercept (Fc fusion), the 50% effective concentration (EC50) was 0.0513 nM and 0.074 nM and 0.0403 nM.
